T1: cynoNectin4 antigen (cynomolgus (cyno), UniProt A0A2K5WES1 32-349)
T1 construct: construct not described; also called cynomolgus (cyno) Nectin-4
T1 sequence: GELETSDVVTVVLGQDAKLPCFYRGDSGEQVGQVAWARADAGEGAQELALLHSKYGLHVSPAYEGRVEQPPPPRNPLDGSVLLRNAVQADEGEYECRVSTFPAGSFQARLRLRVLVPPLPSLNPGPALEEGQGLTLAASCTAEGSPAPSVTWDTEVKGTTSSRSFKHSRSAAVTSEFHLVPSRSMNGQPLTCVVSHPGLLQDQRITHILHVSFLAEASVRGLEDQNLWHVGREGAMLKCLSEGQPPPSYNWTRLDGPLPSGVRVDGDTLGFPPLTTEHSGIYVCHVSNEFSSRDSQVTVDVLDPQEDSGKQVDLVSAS

T2: huNectin4-His (human, UniProt Q96NY8 32-349)
T2 construct: Immobilized on the SPR chip; also called humanNectin4; human Nectin4; not shown: His tag
T2 sequence (looked up): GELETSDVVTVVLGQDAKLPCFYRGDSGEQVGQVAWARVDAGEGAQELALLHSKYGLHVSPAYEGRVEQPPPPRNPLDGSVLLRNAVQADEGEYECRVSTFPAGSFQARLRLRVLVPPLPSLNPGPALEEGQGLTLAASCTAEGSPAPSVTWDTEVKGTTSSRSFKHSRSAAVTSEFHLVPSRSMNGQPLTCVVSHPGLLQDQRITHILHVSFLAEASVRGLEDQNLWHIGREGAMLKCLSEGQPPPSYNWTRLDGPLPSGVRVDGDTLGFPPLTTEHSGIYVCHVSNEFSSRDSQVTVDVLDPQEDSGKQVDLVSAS

T3: human Nectin-4 on cells (human, UniProt Q96NY8 32-510)
T3 construct: whole, on cells; also called HEK293 cells expressing human Nectin-4; T47D cells that express human Nectin-4
T3 sequence (looked up): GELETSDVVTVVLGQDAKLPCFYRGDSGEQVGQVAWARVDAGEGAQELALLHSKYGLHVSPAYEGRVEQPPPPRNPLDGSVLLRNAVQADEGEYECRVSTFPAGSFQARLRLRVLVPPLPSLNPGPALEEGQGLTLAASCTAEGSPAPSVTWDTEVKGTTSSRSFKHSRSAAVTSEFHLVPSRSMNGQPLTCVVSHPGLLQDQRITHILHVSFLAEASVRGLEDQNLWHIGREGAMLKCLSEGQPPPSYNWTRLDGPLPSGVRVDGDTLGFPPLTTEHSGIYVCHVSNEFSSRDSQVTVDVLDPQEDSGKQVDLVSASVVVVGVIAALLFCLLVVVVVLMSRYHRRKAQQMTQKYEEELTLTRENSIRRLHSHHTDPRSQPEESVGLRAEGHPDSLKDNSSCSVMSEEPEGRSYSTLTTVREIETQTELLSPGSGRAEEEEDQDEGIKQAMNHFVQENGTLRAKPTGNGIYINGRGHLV

T4: recombinant human Nectin4 antigen (human, UniProt Q96NY8 32-349)
T4 construct: construct not described
T4 sequence (looked up): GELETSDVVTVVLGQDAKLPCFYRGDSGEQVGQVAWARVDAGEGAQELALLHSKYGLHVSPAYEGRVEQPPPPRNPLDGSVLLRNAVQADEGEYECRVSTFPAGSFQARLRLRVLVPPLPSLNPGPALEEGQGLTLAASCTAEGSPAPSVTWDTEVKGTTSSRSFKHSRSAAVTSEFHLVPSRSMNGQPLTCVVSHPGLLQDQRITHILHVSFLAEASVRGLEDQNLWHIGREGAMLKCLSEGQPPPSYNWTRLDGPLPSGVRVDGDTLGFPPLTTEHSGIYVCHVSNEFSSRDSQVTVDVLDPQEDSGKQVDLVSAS


Legend:
cynoNectin4 antigen [1] = target: T1, cynoNectin4 antigen; experiment: ELISA, coated antigen, PSB pH 6.0
Experimental: (§1) 1) Coat ELISA plates with 100 μL of 1 μg/mL recombinant human Nectin4 antigen or cynoNectin4 antigen in carbonate-bicarbonate coating buffer. […] 2) Cover plates with sealing film and incubate overnight at 4° C. [0444] 3) Decant plates and tap out residual liquid on a stack of paper towels. [0445] 4) Wash wells twice by dispensing 200 μL of pH 6.0 or pH 7.4 ELISA incubation buffer to the wells and completely aspirate the contents. [0446] 5) Add 200 μL of pH 6.0 or pH 7.4 ELISA incubation buffer to the wells. Cover with sealing film and place the plate onto a plate shaker set to 50 rpm for 60 minutes at room temperature. [0447] 6) Decant plates and tap out residual liquid on a stack of paper towels. […] 7) Serially dilute test articles in 3-fold dilutions starting at 3000 ng/mL in pH 6.0 or pH 7.4 ELISA incubation buffer. […] 8) Add 100 μL/well of diluted test articles to the plates [0450] 9) Cover with sealing film and place the plates onto a plate shaker set to 50 rpm for 60 minutes at room temperature. [0451] 10) Decant plates and tap out residual liquid on a stack of paper towels. [0452] 11) Wash wells three times by dispensing 200 μL of pH 6.0 or pH 7.4 ELISA wash buffer to the wells and completely aspirate the contents. […] 12) Dilute the HRP secondary antibody at 1:2500 in pH 6.0 or pH 7.4 ELISA incubation buffer. [0454] […] 14) Cover with sealing film and place the plates onto a plate shaker set to 50 rpm for 60 minutes at room temperature. […] 15) Decant plates and tap out residual liquid on a stack of paper towels. […] 16) Wash wells three times by dispensing 200 μL of pH 6.0 or pH 7.4 ELISA wash buffer to the wells and completely aspirate the contents. [0458] 17) Dispense 50 μL per well of the TMB substrate solution into all wells of the plates.

huNectin4-His = target: T2, huNectin4-His; experiment: SPR, huNectin4-His immobilized, pH 6.0
Experimental: Binding kinetics of anti-Nectin4 antibodies were measured by surface plasmon resonance using a SPR2/4 instrument (Sierra Sensors, Hamburg, Germany) and flat amine sensor chips. The SPR sensor contained four flow cells (FC1-FC4), each of which was addressed individually or in groups. huNectin4-His was immobilized in FC2, and cynoNectin4-mFc in FC4. No protein was immobilized in FC1 and FC3 which were used as control surfaces for FC2 and FC4, respectively.
All injections were done at a flow rate of 25 μL/min at 25° C. The sensor surface was activated with 1-ethyl-3-(3-dimethylaminopropyl)-carbodiimide (EDC) and N-hydroxysuccinimide (NHS) (200 mM/50 mM) for 480 seconds. HuNectin4-His (2 μg/mL in 10 mM NaAc, pH4.5) was injected for 480s and the surface was inactivated by injecting 1M ethanolamine-HCl for 480s. CynoNectin4 was immobilized using the same conditions as described for huNectin4-His, except that the cynoNectin4 was diluted into 10 mM NaAc buffer having pH 5.0. The control surface was activated and deactivated using the same conditions, but without injecting protein. PBST buffer (PBS pH 7.4 with 0.05% TWEEN20™) was used as running buffer for the surface preparation. The running solution was switched to PBST with 30 mM sodium bicarbonate with the pH adjusted as indicated in the figures before the analyte injections. The instrument was equilibrated with the running solution for one hour before the first analyte injection.
The off-rate was measured for 360s. The chip surface was regenerated after each cycle of interaction analysis by injecting 6 μL of 10 mM glycine (pH 2.0). Flow cells 1 and 3 without immobilized protein were used as control surfaces for reference subtraction.

cynoNectin4 antigen [2] = target: T1, cynoNectin4 antigen; experiment: ELISA, ratio of EC50s
Experimental: as §1

human Nectin-4 on cells = target: T3, human Nectin-4 on cells; experiment: FACS, HEK293 cells expressing human Nectin-4
Experimental: FACS analysis was carried out using HEK293 cells expressing human Nectin-4.

[3] = target: T4, recombinant human Nectin4 antigen; experiment: ELISA, ratio of EC50s
Experimental: as §1

| EC50 (cynoNectin4 antigen [1]) | Kd (huNectin4-His) | EC50 ratio pH 7.4/6.0 (cynoNectin4 antigen [2]) | Ratio (pH 7.4/6.0) of EC50 (human Nectin-4 on cells) | EC50 ratio pH 7.4/6.0 [3] | koff (huNectin4-His) | kon (huNectin4-His) | EC50 ratio pH 7.4/pH 6.0 [3] | Binder |
| --- | --- | --- | --- | --- | --- | --- | --- | --- |
| 0.0146 µg/mL | 0.149 nM | – | – | – | – | – | – | BAP-143-wildtype (antibody, V domains shown, 150 kDa used in SPR; also called BAP143-00-00; benchmark (BM)) VH: EVQLVESGGGLVQPGGSLRLSCAASGFTFSSYNMNWVRQAPGKGLEWVSYISSSSSTIYYADSVKGRFTISRDNAKNSLSLQMNSLRDEDTAVYYCARAYYYGMDVWGQGTTVTVSS VL: DIQMTQSPSSVSASVGDRVTITCRASQGISGWLAWYQQKPGKAPKFLIYAASTLQSGVPSRFSGSGSGTDFTLTISSLQPEDFATYYCQQANSFPPTFGGGTKVEIK |
| 0.0395 µg/mL | – | 1.83 | 2.8 | – | – | – | – | BAP-143-06-33-03 (antibody, V domains shown, Used as a conjugate with a linker payload (CAB ADC)) VH: QVQLVQSGAEVKKPGASVKVSCKASGFTFSSYNMNWVRQARGQRLEWIGYISSSSSTIYYADSVKGRFTISRDNSKNTLYLQMNSLRAEDTAVYYCARAYYYGMDKWGQGTLVTVSS VL: DIQMTQSPSSVSASVGDRVTITCRASQGISGWLAWYQQKPGKAPKFLIYAASTLQSGVPSRFSGSGSGTDFTLTISSLQPEDFATYYCQQANSEPPTFGGGTKVEIK |
| 0.0261 µg/mL | 0.0944 nM | 1.08 | 1.4 | 3.63 | 0.00033 s⁻¹ | 3.5e+06 M⁻¹ s⁻¹ | – | BAP-143-06-24-16 (antibody, V domains shown, Used as a conjugate with a linker payload (CAB ADC)) VH: EVQLVQSGAEVKKPGATVKISCKVSGFTFSSYNMNWIRQSPSRGLEWLGYISSSSSTIYYADSVKGRFTISRDNSKNTLYLQMNSLRAEDTAVYYCARAYYYGDDVWGQGTLVTVSS VL: DIQMTQSPSSVSASVGDRVTITCHASQGISGWLAWYQQKPGKAPKFLIYAASTLQSGVPSRFSGSGSGTDFTLTISSLQPEDFATYYCQQANSFPPTFGGGTKVEIK |
| – | – | – | – | – | – | – | 3.2 | BAP-143-00-05 (antibody, V domains shown, Used as a conjugate with a linker payload (CAB ADC)) VH: EVQLVESGGGLVQPGGSLRLSCAASGFTFSSYNMNWVRQAPGKGLEWVSYISSSSSTIYYADSVKGRFTISRDNAKNSLSLQMNSLRDEDTAVYYCAEAYYYGMDVWGQGTTVTVSS VL: DIQMTQSPSSVSASVGDRVTITCRASQGISGWLAWYQQKPGKAPKFLIYAASTLQSGVPSRFSGSGSGTDFTLTISSLQPEDFATYYCQQANSFPPTFGGGTKVEIK |
| 0.0239 µg/mL | 0.69 nM | 3.6 | 2 | – | 0.000869 s⁻¹ | 1.26e+06 M⁻¹ s⁻¹ | – | BAP-143-07-03-12 (antibody, V domains shown, Used as a conjugate with a linker payload (CAB ADC)) VH: EVQLVESGGGLVQPGGSLRLSCAASGFTFSSYNMNWVRQAPGKGLEWVSYISSSSSTIYYADSVKGRFTISRDNAKNSLSLQMNSLRDEDTAVYYCARAYYYGMDKWGQGTTVTVSS VL: DIQMTQSPSSVSASVGDRVTITCRASQGISGWEAWYQQKPGKAPKFLIYAASTLQSGVPSRFSGSGSGTDFTLTISSLQPEDFATYYCQQANSFPPTFGGGTKVEIK |
| – | 0.739 nM | – | 2.2 | – | 0.000771 s⁻¹ | 1.04e+06 M⁻¹ s⁻¹ | – | BAP-143-00-01 (antibody, V domains shown, Used as a conjugate with a linker payload (CAB ADC)) VH: EVQLVESGGGLVQPGGSLRLSCAASGFTFSSYNMNWVRQAPGKGLEWVSYISSSSSTIYYADSVKGRFTISRDNAKNSLSLQMNSLRDEDTAVYYCARAYYYGMDVWGQGTTVTVSS VL: DIQMTQSPSSVSASVGDRVTITCRASQGISGWEAWYQQKPGKAPKFLIYAASTLQSGVPSRFSGSGSGTDFTLTISSLQPEDFATYYCQQANSFPPTFGGGTKVEIK |
| – | – | – | – | – | – | – | 2.37 | BAP-143-00-04 (antibody, V domains shown, Used as a conjugate with a linker payload (CAB ADC)) VH: EVQLVESGGGLVQPGGSLRLSCAASGFTFSSYNDNWVRQAPGKGLEWVSYISSSSSTIYYADSVKGRFTISRDNAKNSLSLQMNSLRDEDTAVYYCARAYYYGMDVWGQGTTVTVSS VL: DIQMTQSPSSVSASVGDRVTITCRASQGISGWLAWYQQKPGKAPKFLIYAASTLQSGVPSRFSGSGSGTDFTLTISSLQPEDFATYYCQQANSFPPTFGGGTKVEIK |
| – | – | – | – | – | – | – | 7.13 | BAP-143-00-03 (antibody, V domains shown, Used as a conjugate with a linker payload (CAB ADC)) VH: EVQLVESGGGLVQPGGSLRLSCAASGFTFSSYNMNWVRQAPGKGLEWVSYISSSSSTIYYADSVKGRFTISRDNAKNSLSLQMNSLRDEDTAVYYCARAYYYGMDVWGQGTTVTVSS VL: DIQMTQSPSSVSASVGDRVTITCRASQGISGWLAWYQQKPGKAPKFLIYAASTLQSGVPSRFSGSGSGTDFTLTISSLQPEDFATYYCQQANSFPDTFGGGTKVEIK |
| 0.0384 µg/mL | 0.11 nM | – | 1.5 | – | 0.000195 s⁻¹ | 1.77e+06 M⁻¹ s⁻¹ | – | BAP-143-06-33-16 (antibody, V domains shown, Used as a conjugate with a linker payload (CAB ADC)) VH: EVQLVQSGAEVKKPGATVKISCKVSGFTFSSYNMNWIRQSPSRGLEWLGYISSSSSTIYYADSVKGRFTISRDNSKNTLYLQMNSLRAEDTAVYYCARAYYYGDDVWGQGTLVTVSS VL: DIQMTQSPSSVSASVGDRVTITCRASQGISGWEAWYQQKPGKAPKFLIYAASTLQSGVPSRFSGSGSGTDFTLTISSLQPEDFATYYCQQANSFPPTFGGGTKVEIK |
| – | – | – | – | – | – | – | 2.83 | BAP-143-00-06 (antibody, V domains shown, Used as a conjugate with a linker payload (CAB ADC)) VH: EVQLVESGGGLVQPGGSLRLSCAASGFTFSSYNMNWVRQAPGKGLEWVSYISSSSSTIYYADSVKGRFTISRDNAKNSLSLQMNSLRDEDTAVYYCARAYYYGDDVWGQGTTVTVSS VL: DIQMTQSPSSVSASVGDRVTITCRASQGISGWLAWYQQKPGKAPKFLIYAASTLQSGVPSRFSGSGSGTDFTLTISSLQPEDFATYYCQQANSFPPTFGGGTKVEIK |
